Results: patent publication US20250313625A1
Where two headings read alike, the source gives them in different places.

Columns and labels:
[1] = biological target: mFc tagged human LAG3 ECD recombinant protein (human) (UniProt P18627); test: competitive FACS: mFc tagged human LAG3 ECD binding to MHC II on Raji cells
[2] = biological target: mFc tagged human LAG3 ECD recombinant protein (human) (UniProt P18627); test: as above; remark: listed apart in the source
[3] = biological target: mFc tagged human LAG3 ECD recombinant protein (human) (UniProt P18627); test: competitive ELISA: mFc tagged human LAG3 ECD binding to plate coated LSECtin ECD

Chain of mFc tagged human LAG3 ECD recombinant protein (human) (P18627 23-450): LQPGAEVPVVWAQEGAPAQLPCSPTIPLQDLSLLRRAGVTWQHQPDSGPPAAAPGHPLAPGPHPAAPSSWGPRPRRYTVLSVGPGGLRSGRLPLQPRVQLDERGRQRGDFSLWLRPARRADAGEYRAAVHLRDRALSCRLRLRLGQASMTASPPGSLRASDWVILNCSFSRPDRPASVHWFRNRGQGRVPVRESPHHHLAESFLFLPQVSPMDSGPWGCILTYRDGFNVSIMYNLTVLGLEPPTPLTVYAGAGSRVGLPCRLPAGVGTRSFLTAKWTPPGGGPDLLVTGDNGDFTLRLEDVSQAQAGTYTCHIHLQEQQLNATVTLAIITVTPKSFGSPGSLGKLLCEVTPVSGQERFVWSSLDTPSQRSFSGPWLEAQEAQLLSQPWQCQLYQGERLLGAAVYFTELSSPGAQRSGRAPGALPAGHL

- %Blocking at 2 nM [1]: 5.7%
- %Blocking at 8 nM [1]: 3.4%
- %Blocking at 8 nM [2]: 10.9%
- %Blocking at 4 nM [3]: 1.3%
- %Blocking at 20 nM [3]: 5.6%
- %Blocking at 100 nM [3]: 7.4%
Substance: hIgG4 (antibody)
